Residue numbers refer to the chain shown, from its start. Read-outs that look alike come from different tables or passages of the source. Where no end group is shown, it is not given here.
T1: Gαi3 L249V (Homo sapiens)
T1 chain: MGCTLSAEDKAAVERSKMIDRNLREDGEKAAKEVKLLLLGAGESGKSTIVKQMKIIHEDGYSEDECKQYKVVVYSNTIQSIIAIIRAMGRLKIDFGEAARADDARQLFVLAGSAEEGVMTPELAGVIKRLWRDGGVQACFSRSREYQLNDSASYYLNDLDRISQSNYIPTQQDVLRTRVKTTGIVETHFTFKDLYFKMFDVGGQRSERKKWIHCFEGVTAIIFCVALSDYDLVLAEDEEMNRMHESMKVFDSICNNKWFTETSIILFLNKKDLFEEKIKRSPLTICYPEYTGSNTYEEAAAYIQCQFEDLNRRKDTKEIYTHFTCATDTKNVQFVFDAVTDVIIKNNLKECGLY

T2: Human His-Gαi3 WT (human, UniProt P08754 1-354)
T2 chain: T1 chain with V249L

T3: Human His-Gαi3 ΔC9 (lacking the last nine residues) (human, UniProt P08754 1-345)
T3 chain: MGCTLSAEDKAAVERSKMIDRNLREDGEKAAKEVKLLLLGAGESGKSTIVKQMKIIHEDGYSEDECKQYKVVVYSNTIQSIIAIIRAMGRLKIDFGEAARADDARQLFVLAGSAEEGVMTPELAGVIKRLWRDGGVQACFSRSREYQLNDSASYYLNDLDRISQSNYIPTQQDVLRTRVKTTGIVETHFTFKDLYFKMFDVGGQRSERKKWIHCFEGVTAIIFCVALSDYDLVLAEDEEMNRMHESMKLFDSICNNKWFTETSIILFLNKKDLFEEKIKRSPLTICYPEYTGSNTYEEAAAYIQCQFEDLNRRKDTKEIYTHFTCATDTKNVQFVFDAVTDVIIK

T4: Full-length human Gαi3, untagged (NMR sample) (human, UniProt P08754 1-354)
T4 chain: T1 chain with V249L

B1: Fluorescein-labelled RGS12 GoLoco peptide (residues 1,185–1,221) (peptide)
peptide: DEAEEFFELISKAQSNRADDQRGLLRKEDLVLPEFLR
modifications: not fully specified (N-terminus); also: 5,6-carboxyfluorescein coupled to resin-bound peptide after elongation, site not given here
B2: Fluorescein-labelled GIV peptide (residues 1,671–1,701) (peptide)
peptide: KTGSPGSEVVTLQQFLEESNKLTSVQIKSSS
modifications: not fully specified (N-terminus); also: 5,6-carboxyfluorescein coupled to resin-bound peptide after elongation, site not given here

Legend:
[1] = target: Human His-Gαi3 W258 mutant (human, UniProt P08754 1-354); assay: FP
[2] = target: Human His-Gαi3 V218 mutant (human, UniProt P08754 1-354); assay: FP
[3] = target: Human His-Gαi3 L39 mutant (human, UniProt P08754 1-354); assay: FP
[4] = target: Human His-Gαi3 L36 mutant (human, UniProt P08754 1-354); assay: FP
[5] = target: Human His-Gαi3 L37 mutant (human, UniProt P08754 1-354); assay: FP
[6] = target: Human His-Gαi3 F259 mutant (human, UniProt P08754 1-354); assay: FP
[7] = target: Human His-Gαi3 K257 mutant (human, UniProt P08754 1-354); assay: FP
[8] = target: Human His-Gαi3 I184 mutant (human, UniProt P08754 1-354); assay: FP
[9] = target: Human His-Gαi3 G42 mutant (human, UniProt P08754 1-354); assay: FP
Human His-Gαi3 L249H = Human His-Gαi3 L249H (human, UniProt P08754 1-354, L249H); assay: FP
Gαi3 L249V = target: T1, Gαi3 L249V; assay: FP
Human His-Gαi3 S252A = Human His-Gαi3 S252A (human, UniProt P08754 1-354, S252 mutated to A); assay: FP
Human His-Gαi3 WT [10] = target: T2, Human His-Gαi3 WT; assay: FP
Human His-Gαi3 S252D = Human His-Gαi3 S252D (human, UniProt P08754 1-354, S252D); assay: FP
Human His-Gαi3 W211A = Human His-Gαi3 W211A (human, UniProt P08754 1-354, W211A); assay: FP
[11] = target: T3, Human His-Gαi3 ΔC9 (lacking the last …); assay: FP
Human His-Gαi3 WT [12] = target: T2, Human His-Gαi3 WT; assay: FP
Human His-Gαi3 WT [13] = target: T2, Human His-Gαi3 WT; assay: FP
[14] = target: T5, Human His-Gαi3 K317 mutant (human, UniProt P08754 1-354); assay: FP; K317W
[15] = target: T4, Full-length human Gαi3, untagged (NMR …); assay: FP; His-tag cleaved Gαi3
[16] = target: T5, Human His-Gαi3 K317 mutant; assay: FP; K317A
Human His-Gαi3 N256A = Human His-Gαi3 N256A (human, UniProt P08754 1-354, N256 mutated to A); assay: FP
[17] = target: Human His-Gαi3 R313 mutant (human, UniProt P08754 1-354); assay: FP

Binder | Kd [1] [nM] | Kd [2] [nM] | Kd [3] [nM] | Kd [4] [nM] | Kd [5] [nM] | Kd [6] [nM] | Kd [7] [nM] | Kd [8] [nM] | Kd [9] [nM] | Kd (Human His-Gαi3 L249H) [nM] | Kd (Gαi3 L249V) [nM] | Kd (Human His-Gαi3 WT [10]) [nM] | Kd (Human His-Gαi3 S252D) [nM] | other results
B1 | 63 | 104 | 176 | 119 | 80 | 187 | 86 | 83 | 98 | 266 | 84 | 54 | 336 | Kd (Human His-Gαi3 S252A): 35 nM; Kd (Human His-Gαi3 W211A): 61 nM
B2 | 1820 | 362 | 3080 | 706 | 478 | 1260 | 870 | 1910 | 377 | 4410 | 1370 | 581 | 3090 | Kd [11]: 700 nM; Kd (Human His-Gαi3 WT [12]): 580 nM; Kd (Human His-Gαi3 WT [13]): 580 nM; Kd [14]: 510 nM; Kd [15]: 680 nM; Kd [16]: 590 nM; Kd (Human His-Gαi3 N256A): 1040 nM; Kd [17]: 800 nM

Reference: paper PMC5454376 (2017)
